Measurements taken from patent publication US10370647B2 (priority 2015, dated 2019).

Experiments:
KFtx series = assay type: cell-based; conditions: 72 hours
ERK = assay: Change in pERK/tERK by EGF stimulation (In-Cell ELISA); assay type: cell-based; conditions: all cells (Low, UCA1 Low, Empty Low, KFtx); 0.2 ng/μl EGF, 30 minutes; 10% or 0.5% FBS
Protocol: The KFtx series (Low, UCA1 Low, Empty Low, and KFtx) were seeded at a cell density of 6×10^3/well in 10% FBS-containing RPMI on a 96-well plate, and were then cultured at 37° C. for 12 hours. Thereafter, the medium was exchanged with RPMI containing 10% FBS or 0.5% FBS. The cells were further cultured at 37° C. for 24 hours, and the medium was then exchanged with another one, to result in an EGF concentration of 0.2 ng/μl. After 30 minutes of EGF stimulation, tERK (total-ERK) and pERK (phosphorylated-ERK) were measured using Pierce Colorimetric In-Cell ELISA Kits (n=3). […] In addition, it was confirmed that, in all cells, pERK was activated by EGF stimulation and the percentage of the pERK was increased.

B1: EGF (protein, UniProt P01133 23-1207, looked up)
Pro-epidermal growth factor: PQHWSCPEGTLAGNGNSTCVGPAPFLIFSHGNSIFRIDTEGTNYEQLVVDAGVSVIMDFHYNEKRIYWVDLERQLLQRVFLNGSRQERVCNIEKNVSGMAINWINEEVIWSNQQEGIITVTDMKGNNSHILLSALKYPANVAVDPVERFIFWSSEVAGSLYRADLDGVGVKALLETSEKITAVSLDVLDKRLFWIQYNREGSNSLICSCDYDGGSVHISKHPTQHNLFAMSLFGDRIFYSTWKMKTIWIANKHTGKDMVRINLHSSFVPLGELKVVHPLAQPKAEDDTWEPEQKLCKLRKGNCSSTVCGQDLQSHLCMCAEGYALSRDRKYCEDVNECAFWNHGCTLGCKNTPGSYYCTCPVGFVLLPDGKRCHQLVSCPRNVSECSHDCVLTSEGPLCFCPEGSVLERDGKTCSGCSSPDNGGCSQLCVPLSPVSWECDCFPGYDLQLDEKSCAASGPQPFLLFANSQDIRHMHFDGTDYGTLLSQQMGMVYALDHDPVENKIYFAHTALKWIERANMDGSQRERLIEEGVDVPEGLAVDWIGRRFYWTDRGKSLIGRSDLNGKRSKIITKENISQPRGIAVHPMAKRLFWTDTGINPRIESSSLQGLGRLVIASSDLIWPSGITIDFLTDKLYWCDAKQSVIEMANLDGSKRRRLTQNDVGHPFAVAVFEDYVWFSDWAMPSVMRVNKRTGKDRVRLQGSMLKPSSLVVVHPLAKPGADPCLYQNGGCEHICKKRLGTAWCSCREGFMKASDGKTCLALDGHQLLAGGEVDLKNQVTPLDILSKTRVSEDNITESQHMLVAEIMVSDQDDCAPVGCSMYARCISEGEDATCQCLKGFAGDGKLCSDIDECEMGVPVCPPASSKCINTEGGYVCRCSEGYQGDGIHCLDIDECQLGEHSCGENASCTNTEGGYTCMCAGRLSEPGLICPDSTPPPHLREDDHHYSVRNSDSECPLSHDGYCLHDGVCMYIEALDKYACNCVVGYIGERCQYRDLKWWELRHAGHGQQQKVIVVAVCVVVLVMLLLLSLWGAHYYRTQKLLSKNPKNPYEESSRDVRSRRPADTEDGMSSCPQPWFVVIKEHQDLKNGGQPVAGEDGQAADGSMQPTSWRQEPQLCGMGTEQGCWIPVSSDKGSCPQVMERSFHMPSYGTQTLEGGVEKPHSLLSANPLWQQRALDPPHQMELTQ
modifications: Pro-epidermal growth factor
- replication ability of the vaccinia virus by EGF stimulation (KFtx series): not enhanced
- percentage of the pERK (ERK): increased
